According to the supplement of paper PMC10567573:

B1: ALKBH7 (parent)
chain: SVICRSLPEGMGPGESGQPPPAC
B2: FCHO1 (parent)
chain: FTSSPSPFSSSSPENVEDSGLDSP

Variants of: B1
Test: protein stability index of a GFP-peptide fusion (GPS, HEK-293T) (PSI 1-6); higher = more stable
Settings: c terminus: native
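Further: lentivirally expressed fusions sorted by FACS into six bins by GFP to DsRed ratio, PSI derived from sequencing read proportions per bin multiplied by bin number.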

Protein stability index: each site, then its substitutions
L7: E 2.16, R 1.85, Q 2.67, Y 1.67, D 2.98, S 2.14, T 3.06, A 2.32, C 2.05, H 1.63, I 2.36, M 1.67, V 1.99, F 2.35
G17: H 1.4, A 2.39, K 2.94, Q 2.11, E 2.45, N 1.95, D 2.36, T 1.61, S 1.71, Y 1.09, C 1.73, L 2.14, R 1.38, I 2.46
S1: E 3.06, M 1.47, D 1.87, I 3.78, T 2.2, P 2.23, H 1.98, N 1.63, R 1.39, G 2.23
P8: V 1.42, A 2.08, N 2.48, T 1.67, W 2.01, H 2.94, S 2.32, Q 2.53, I 1.65, G 2.19, E 2.46, M 2.93
P13: K 2.16, L 1.39, I 1.75, W 1.57, D 2.4, Q 2.38, A 1.73, R 3.33, H 2.18, N 2.4, F 1.55, S 2.35, G 1.58, M 1.55, C 1.92, T 1.81, V 1.4, Y 1.74, E 1.92
Q18: S 2.36, Y 3.38, F 3.03, K 2.16, N 2.05, D 2.05, A 2.15, H 2.38, I 2.56, E 2.15, M 1.85, C 1.66, R 2, L 2.07
G14: V 1.15, C 1.52, A 2.37, D 2.25, W 1.26, S 1.42, E 1.53, K 1.58, N 2.42, H 2.07, T 1.77, Q 2.4, F 1.61, M 1.63, L 2, R 1.67, I 1.24
S6: C 2.03, D 2.54, E 3.01, K 2.28, A 2.01, L 1.6, Y 2.25, T 2.07, I 1.43, Q 2.08, M 1.68, P 2.05, R 1.95, H 2.71
E15: G 1.82, C 1.01, A 1.09, F 2.49, R 1.6, N 1.8, H 1.71, D 2.44, K 1.62, Q 1.16, P 1.73, T 2.01, S 2.68, V 2.44, M 2.4, L 1.02, I 2.1, Y 1.66
V2: I 2.77, G 2.08, H 1.78, P 2.31, A 2.4, K 2.14, N 2.41, D 2.05, F 2.78, M 2.57, T 2.9, E 2.4, Q 2.26, C 1.73, S 2.67
G12: L 1.85, P 2.37, S 1.87, M 2.68, Q 2, F 1.54, K 2.22, I 1.87, E 2.85, W 1.09, R 1.82, D 2.52, N 2.09, A 2.17, Y 2.04, H 1.69
S16: G 2.29, T 1.92, H 2.07, D 2.2, I 1.59, V 3.02, M 2.59, R 2.12, K 2.28, N 2.06, A 1.97, Q 1.8, P 2.07, E 1.81, Y 1.95, F 2.37
R5: A 1.88, E 2.46, T 2.1, Y 1.46, N 1.7, K 2.32, G 2.09, D 2.56, S 2.65, L 1.66, H 2.73, M 1.8, P 2.59, C 2.28, F 1.51, I 1.44, Q 2.04
C4: T 1.62, I 2.88, R 1.72, S 1.82, Q 2.83, A 3.06, P 2.4, G 1.79, Y 1.47, L 2.03, W 2.62, H 2.29, F 1.61, M 1.75, D 1.58, K 1.37, N 2.24, V 1.63
E9: Y 1.85, W 1.68, T 1.7, F 1.86, C 1.02, K 1.7, N 1.93, Q 1.83, M 1.55, R 1.91, H 1.77, D 2.97, L 1.23, I 1.99, S 1.5, G 2.54
M11: P 1.84, N 2.81, S 2.23, H 1.98, R 2.29, W 1, C 1.73, D 4.2, E 3.08, A 2.37, F 1.49, L 1.99, Y 2.52
I3: S 2.51, T 1.92, K 1.65, M 1.43, F 1.66, R 2.64, Y 1.62, A 2.19, P 2.4, V 1.84, N 2.23, H 3.61, L 1.6, Q 1.49, E 2.88
G10: N 1.5, A 2.59, E 1.91, I 1.95, F 1.89, K 1.91, M 3.27, L 1.51, D 2.29, S 3.04, P 1.88, C 1.95, Y 1.91, T 1.03, R 1.76
P19: H 3.66, Q 4.22, I 3.09, F 1.99, E 5.1, D 4.84, L 2.19, R 2.69, N 4.27, C 3.13, M 1.64, A 1.71, K 3.18

Variants of: B2
Test: as above
Settings: c terminus: a fixed tail appended

Protein stability index: each site, then its substitutions
P24: T 2.08, M 2.24, K 1.96, F 1.89, A 1.38, Y 2.35, S 1.94, G 1.77, W 1.54, D 1.85, V 2.02, Q 2.32, L 1.98, E 1.84, N 1.81, H 2.42, C 2.99, R 2.47, I 1.96
D22: N 2.96, V 2.43, M 1.48, Q 1.83, R 2.04, Y 2.42, P 2.23, S 1.78, W 2.62, T 2.18
S23: R 1.79, T 1.8, A 2.06, K 2.17, P 2.27, C 1.68, F 2.18, E 1.88, G 1.81, H 2.44, Y 1.37, M 1.68, W 2.12, N 1.78, Q 2.66, L 2.6, I 1.91, D 2.18, V 1.56
